The data set is described as follows: soluble on expression in E. coli; label from the status in PepcDB or PDB records.
Turning to “MKKKDTCEIFGYDEEKVNRIQGDLQTVDISGVSQILKAIADENRAKITYALCQDEELCVCDIANILGVTIANASHHLRTLYKQGVVNFRKEGKLALYSLGGEAIRQIMMIALAHKKEVKVNV”, the “soluble on expression in E. coli” value is on record as “soluble”. With “MSLIRDMQLSRFSIPFAAPIRVGGQELNKRDGLLVAVRDDQGHTGWGEAAPLPGLDTISLDQCQGELCPIRKAFADQALNWDSFSLTAPMMGLCPEIPGLNPISAFGVESALAWLGLCSGQWGIAGADELGIAVNGLFVPSPDPDRLPAQAKQLKASGFSTVKIKIGRMDSDDEIRQILELDSLFNHKLALRLDANRSLDFAQYQSYFEALKHLNIEYVEEPLKPEYDFFEAAQIPWPLALDESLESYANLDEPFPKSLGAVILKPGSFQGVHGMAQAMEHLHTQGIKTVLSSSFNNTMGMSMLGLLANLYAPETAHGLDTLKYFQPSDLSLGLSIAKGRMAIPVDLFGGGLNLASGLMEEIAEGHHHHHH” the entry was “soluble”.

On to “MNVRNGKASTLRTNDVEPIKDSFSILIIGVDTSTTRASNGNPRSDSLILATFNVKDARVEMTSIPRDSYVHIEDSAKEINKYTKINAAHAYGGPELTMKTVEEEFKIPIDYYVRFDFDAFLKIIDALDGIDVDVPVNFTEQDSKDNQNAITLKKGPQHLNAEQALALARTRHIDSDIERGKRQQLIIKSIVSEATSVSSVSKYSDIIEVVGDNMKTNLTFNQMLSIAKFGMSNKIDIKSLNLKGDSNPMNGIYYYKLNESSVQSISNEFASELGIKQPFPGAAAYSDESSTASNLEHHHHHH”, for which the “soluble on expression in E. coli” value is “soluble”. The entry for “MHHHHHHNEEFRPEMLQGKKVIVTGASKGIGREMAYHLSKMGAHVVLTARSEEGLQKVVSRCLELGAASAHYIAGTMEDMTFAEQFIVKAGKLMGGLDMLILNHITQTSLSLFHDDIHSVRRVMEVNFLSYVVMSTAALPMLKQSNGSIAVISSLAGKMTQPMIAPYSASKFALDGFFSTIRTELYITKVNVSITLCVLGLIDTETAMKEISGIINAQASPKEECALEIIKGTALRKSEVYYDKSPLTPILLGNPGRKIMEFFSLRYYNKDMFVSN” is “soluble”; for “MGSDKIHHHHHHMNWWLDPRIFEADNSELAMVLHPEWLNRRDVETIICDGSVRAGKTLIMSMSYVLWSMTNYNEEQFGIAGKTIGSLRRNVIRPLMRMLRGRGYEVKDKRADNLLVISHNGVTNYYYLFGGKDEGSQDLVQGITVAGFFFDEVALMPESFVNQATARASVDGAKFWFNCNPAGPYHWFKLEWLDQLDQHKAIHIHFTMKDNPSLSPETIDRYERMYTGVFYQRFILGQWVLSDGIIYDNFDKNKMVVKNPQGTARKYAVSIDYGTLNPTVFLMWGLYGDTWHLTKMYYYDGRHKHKQKTDEEYSAELDRFEDGLNPVEIIDPSAASFITLRRRGGHHVIKADNDVLDGIRKTGMAMNTGKIVFSPDLADLFKEFASYVWDEKAAEHGEDKPVKQHDHAMDAMRYFVMYMIGRQPTIQTFKLG” it is “not soluble”; for “MSLTKLYYEDQYIKEFKGEIIEVKEIDGKFHVLLDQTAFFPGGGGQMGDLGLIDGIKVLDVYEEEGKVYHVLEKEPKKLKNLQCELDWERRFDGMQQHLGQHLLSGCFYDLFGANTCGFHLGKEISTVDIVGFLDEKTIREAEKEANRLIFENLEVKSYAPSKKELKKVKTRRALPKTDEEIRIVEIVGLDLNACCGVHPRNTRDLQVIKIRRWEKHKNATRIEYVAGNRAVSEGHHHHHH” it is “soluble”.

For “MQAAKVDTLSVHSDAMNKEVQVITICPDKAMAGEKCPVLYLLHGYGGNAGTWLGIKPELPRIADKEGIIFVCPDGKNSWYWDSPLNKEYRYETFVSKELVNYIDKNFTTKAERGGRAVTGLSMGGHGSLWLSIRHKDVFGGGGSMSGGLDIRPFPNNWEMKKQLGEEASNKQRWDEHTVINQLDKIKNGDLAVIIDCGCDDFFLEVNKAVHEKLLKKKINHDFIIRPGGHTGRYWNNAIDYQILFFSKFFNK”, the “soluble on expression in E. coli” value is reported as “not soluble”.

For the sequence “MKWTGEDVALYERERDYIDTALLPLLPVAFGQGAKRLASGGELVGLIAAEVERQLKGRLFLMPSFVYFADEPRALLTERLADWTNRLRREGMKHLFYVTCDRAWQEGEEADRVWFVPVVPLESMGESYKHELVREQAAELLRFLIGRWAQE”, the “soluble on expression in E. coli” value is “not soluble”. “GPGSMETTTHVVNPGEEGAYSSITEAINAAVDGDTVLLKPGLYEELPKVFKDITVTAERDASLTESETIVTNGIVIGSNATLKGLQVRGRVDVRKGHAVIEECDIHHGCDGIRVGEAAKLTVRRSRIHHCESGGDGIYFSTGSMGEVEDCDIYECRVNGVHANNARVVIARNRVRDVLFGFYFRGQSSGSVERNSVEHVSKFGIYVTEGSDPVVQGNMVRECGMHCAFVSQGGKGIWVDNSFDGSMHVHSGCDAKLGSNHVVGRLDVDPPT”: the “soluble on expression in E. coli” value was “not soluble”.

Take “MAHHHHHHMERTNLGHGAVGSLAQLCDELRKSYAAAKEIEQRDTTLTKSETANTLKETSNLFALGMEKLISSDGNVVEVKDAIALAEDAEREVAALRAEKARLQSTEDGHRSKLSATGSDAEVEAFVAYAKELSELHDHLFLARVVFKGVLTKRLEDIRDDRLSQQDKRFTDPKSWDVKKGVLERMLQSLRTKTAQLQLSAKTYLDEDEALFLEVMNLATEAGDHVRRGDAMREARDEKLKVFYAECAKLTGWCRQQLTNLEAMQEPDHVQEYCATLADNYPTMSNNFAVLFNSVQEYVQASLIPVHKALLEAEEVWLYLQVSTLERLSKTLFEIHPQSPLDVEVEKYSSYPEHAAKFLQDLERYLAAQHRQQDEVAELDSVHKECQEVLHTLSGQFAELPSEVHAFAQRAQALRAGYQCFREALLQRLTYVSPAASTVVESKRRQEEFENCVRELKSWAAEASHGESWRDIYSKIVEIKQMIKSEQASLEMKRERAVASGQSR”: the “soluble on expression in E. coli” value is listed as “not soluble”.

Consider “MGHHHHHHSHMGLWQQISNCMPDLALCSDIKFFLRCLERWLNRNSSALQLPARSTQKEIISAFPTKVPSSSHWDWLDSGCSPQKASRSRVGCRLTREAQGVRELPPLAKGSCEGLCREERGIPAQILCFPHGLCNPQTRRFPWVPAPPGPWVSSKKLGSHLGRH”, for which the “soluble on expression in E. coli” value is given as “not soluble”. With “DHSARPKLGIDLQGGTRVTLVPQGQNPTEDQLAQAKSILENRVNGMGVSGASVVSDGNTLVITVPGEDTTQARALGQTSQLLFRPVAKPDAPDTTKLLDAMKEMANRWVEVGVLTPQEANDALSNTAKALAQSEGKKPEDAKAPTVTAKEPKEPANSIESEQLRNKVLEVMKKDRQSTDATTQLSASSLLKCDDTPDPLQGTDDPTKPLVACDPSSGQVYVLSPAPLLQGETDQANGKRLTGNEIDTNRPITGGLNPQTGQMEIGFSFKSDNGDQGSATWAKLTQEYLQKQVAITLDSK” the entry was “not soluble”; with “MGSDKIHHHHHHVIRRKKEADMQLPDAWDWESGERTIMASTAPQEGHLWQEELQASPDGERFAAVTALDETTFSLRINDQTQEATYDKIWLPRFSPDGRLTALVQEDGEWTMLVEEEAWPGHYGYLWSTMFGPSGDIAAPAQQDGEYGMVLNGTPWETLYENANNYCISPAGGKTAAVVQTRSMGQADVATFQEGIYSVAVNGEAWPVNFVNCWTPVFSADGRRVAVQVRRNLHDYTIAVDGTPWTINYQCVWEPCFHPSSGGVAAPVRQNGMWGVALDGQMLWKARNAQCWNLRYSPDGSHLWAVVAPEYGMFTVSLDDTPWTFRAPVVTDMVLSPSGDRAAALASDNNTLWQVVVDGKPWRGTYDMAWQPVFSPDGTRVAARVERNGKYVVLLDGAPAAEAFDTAFDPVFSPDGRKLLLRGVRNGKAVRIVKQLQ”, “not soluble”. With “MTITQRDASSADAICLSALGMQVFLDTYATQGIRESIAREALDAFSPQAFAHLLAEPATLIIVAESQGHLIGFAQFALRTDHPMLGIPTAAELQRLYVQERFTGRGVGRLLLEAAEQRAAAGNATLLWATVWVGNPRALGVYPRQGYEVKGSPRYVFQGETHENCLFAKAIVKAVR” the entry was “not soluble”; with “MGSDKIHHHHHHMSISIYAFYNNKGGVGKTTLCSNAATLYAEKNPKTQVLVIDMCPQANISQFLLGGGKKGYQINQRLQSSATRKNIVGFIDWLLKGNSNFRKPNTSYQVPVYRYNPNISENLYLIAGDSFLESLSLALNYAVINPANIKAWSEYMTAIRRLCEYEYNSETYKDMVVFIDCNPSFSMYTQMALVSSDKIVVPMMADFSSLEGIKSLFMLLFGKYPSAALKQYADGIITFNNQVEHFQLKLPLIYEFVFNNYTIKDGVATAFDSIRTELIDFCYEQFNKFPSLFAPCQHTPTSSKEWENYYFSGIKDFHTSGKVSSSLGIPMSMLPKESKYIMPDGSVVRLPISNYSQALEEIELFVDKIH”, “not soluble”.
